In test [1] the target is T1, human FolR2 on transiently transfected HEK cells (human, UniProt P14207 17-230). Description: flow cytometry on HEK cells transiently transfected with human FolR2, anti-human secondary antibody; concentration not given. On the technique in general: Flow cytometry measures light scatter and fluorescence of single cells or particles in a stream.
Test [2] has as its target T2, human FolR1 on cells (human, UniProt P15328 25-234).
T2 construct: also called FolR1 on HeLa, SKOV3, HT-29 tumor cells; HEK cells transfected with human FolR1
In words: flow cytometry on HeLa cells (human FolR1), fluorescently labeled anti-human secondary antibody.
Description: (§1) Binding of newly generated FolR1 binders to FolR1 expressed on HeLa cells were determined by flow cytometry. Bound antibodies were detected with a fluorescently labeled anti-human secondary antibody.
(§2) The identified binders were converted into a human IgG1 format and binding to FolR1 high expressing HeLa cells was addressed.

Test [3] addresses T2, human FolR1 on cells. In words: flow cytometry on HEK cells transiently transfected with human FolR1, anti-human secondary antibody; concentration not given.
The target in test [4] is T3, cynomolgus FolR1 ECD-AcTev-Fcknob-Avi tag + Fc hole, biotinylated monomeric Fc fusion (cynomolgus, UniProt P0DOX5 223-449 = IgG part).
T3 construct: also called cyFolR1; cyno FolR1-Fc
In words: SPR, IgG single injection. For orientation: SPR reads the build-up and loss of mass on a sensor chip optically.

Test [5] concerns the target T4, human FolR2 ECD-AcTev-Fcknob-Avi tag + Fc hole, biotinylated monomeric Fc fusion (human, UniProt P0DOX5 223-449 = IgG part).
T4 construct: also called huFolR2; FolR2-Fc
Description: SPR, IgG single injection.

The target of test [6] is T5, human FolR3 ECD-AcTev-Fcknob-Avi tag + Fc hole, biotinylated monomeric Fc fusion (human, UniProt P0DOX5 223-449 = IgG part).
T5 construct: also called huFolR3; FolR3-Fc
Description: SPR, IgG single injection.

The target in test [7] is T6, human FolR1 ECD-AcTev-Fcknob-Avi tag + Fc hole, biotinylated monomeric Fc fusion (human, UniProt P0DOX5 223-449 = IgG part).
T6 construct: also called huFolR1; huFolR1-Fc
Description: SPR, IgG single injection.

In test [8] the target is T2, human FolR1 on cells. In words: flow cytometry on HeLa cells (human FolR1), fluorescently labeled anti-human secondary antibody. The source holds these as a separate data set.
Description: as §1, §2
For test [9], the target named is T7, cynomolgus FolR1 on transiently transfected HEK cells (cynomolgus, UniProt P15328 25-234 (human entry)).
T7 construct: also called cyno FolR1; cyFoLR1
Description: flow cytometry on HEK cells transiently transfected with cyno FolR1, anti-human secondary antibody.
Description: Cross-reactivity of the FolR1 antibodies to cyno FolR1 was addressed on HEK cells transiently transfected with cyFolR1 by flow cytometry. The antibodies were detected with a fluorescently labeled anti-human secondary antibody.
In parallel cross-reactivity of the FolR1 clones to cyno FolR1 was addressed by performing binding studies to HEK cells transiently transfected with cyno FolR1.

The target in test [10] is T8, murine FolR1 ECD-AcTev-Fcknob-Avitag + Fc hole, biotinylated monomeric Fc fusion (murine, UniProt P0DOX5 223-449 = IgG part).
T8 construct: also called muFolR1; murine FolR1-Fc
In words: SPR, IgG single injection.

In test [11] the target is T2, human FolR1 on cells. In words: flow cytometry on HeLa cells (human FolR1), fluorescently labeled anti-human secondary antibody. The source holds these as a separate data set.
Description: as §1, §2
Test [12] has as its target T1, human FolR2 on transiently transfected …. In words: flow cytometry on HEK cells transiently transfected with human FolR2, anti-human secondary antibody; concentration not given. This is another data set of the same source.
The target of test [13] is T3, cynomolgus FolR1 ECD-AcTev-Fcknob-Avi …. Description: SPR, apparent KD, bivalent binding (avidity).
Description: (§3) Binding of FolR1 binders as IgG or in the T-cell bispecific format to different recombinant folate receptors (human FolR1, 2 and 3, murine FolR1 and cynomolgus FolR1; all as Fc fusions) was assessed by surface plasmon resonance (SPR).
(§4) Recombinant biotinylated monomeric Fc fusions of human, cynomolgus and murine Folate Receptor 1 (FolR1-Fc) were directly coupled on a SA chip using the standard coupling instruction (Biacore, Freiburg/Germany). The immobilization level was about 300-400 RU. The anti-FolR1 IgGs or T cell bispecifics were passed at a concentration range from 2.1 to 500 nM with a flow of 30 μL/minutes through the flow cells over 180 seconds. The dissociation was monitored for 600 seconds. Bulk refractive index differences were corrected for by subtracting the response obtained on reference flow cell immobilized with recombinant biotinylated IL2 receptor Fc fusion. […] The binding curves resulting from the bivalent binding of the IgGs or T cell bispecifics were approximated to a 1:1 Langmuir binding and fitted with that model (which is not correct, but gives an idea of the avidity). The apparent avidity constants for the interactions were derived from the rate constants of the fitting using the Bia Evaluation software (GE Healthcare).
Test [14] concerns the target T6, human FolR1 ECD-AcTev-Fcknob-Avi tag + …. Description: SPR, apparent KD, bivalent binding (avidity).
Description: as §3, §4
In test [15] the target is T3, cynomolgus FolR1 ECD-AcTev-Fcknob-Avi …. In words: SPR, monovalent, antibody captured by anti-Fab.
Description: as §3
(§5) For affinity measurement, direct coupling of around 6000-7000 resonance units (RU) of the anti-human Fab specific antibody (Fab capture kit, GE Healthcare) was performed on a CM5 chip at pH5.0 using the standard amine coupling kit (GE Healthcare). Anti-FolR1 IgGs or T cell bispecifics were captured at 20 nM with a flow rate of 10 μl/min for 20 or 40 sec, the reference flow cell was left without capture. […] The dissociation phase was monitored for 240 sand triggered by switching from the sample solution to HBS-EP. The chip surface was regenerated after every cycle using a double injection of 60 sec 10 mM Glycine-HCl pH 2.1 or pH1.5. Bulk refractive index differences were corrected for by subtracting the response obtained on the reference flow cell 1. The affinity constants for the interactions were derived from the rate constants by fitting to a 1:1 Langmuir binding using the Bia Evaluation software (GE Healthcare).
Test [16] has as its target T6, human FolR1 ECD-AcTev-Fcknob-Avi tag + …. In words: SPR, monovalent, antibody captured by anti-Fab.
Description: as §3, §5
Test [17] has as its target T3, cynomolgus FolR1 ECD-AcTev-Fcknob-Avi …. In words: SPR, bivalent binding (avidity), antigen on SA chip.
Description: as §3, §4
Test [18] concerns the target T6, human FolR1 ECD-AcTev-Fcknob-Avi tag + …. The test is described as above.
Description: as §3, §4
In test [19] the target is T9, human TIM-3 on cells (human, UniProt Q8TDQ0 22-301).
T9 construct: also called CHO-Tim3; rec CHOK1 cells expressing huTIM-3
In words: flow cytometry, human CD14+ monocytes donor3.

The target of test [20] is T10, huFc fused dimeric human Tim3-ECD (human, UniProt Q8TDQ0 22-202).
T10 construct: also called huTim3Fc; bivalent Tim3
Description: SPR Biacore, bivalent Tim3.
Description: (§6) Therefore, an anti-mouse IgG was immobilized by amine coupling to the surface of a (Biacore) CM5 sensor chip. The samples were then captured and hu/cy Tim3-ECD was bound to them. The sensor chip surface was regenerated after each analysis cycle. The equilibrium constant KD was finally gained by fitting the data to a 1:1 langmuir interaction model.
(§7) Flow cell temperature was set to 25° C. and sample compartment temperature to 12° C. The system was primed with running buffer. The samples were injected for 30 seconds with a concentration of 200 μg/ml and bound to the spots 1 and 5 of each flow cell, allowing the measurement of eight samples in parallel. Then a complete set of different (monomeric cyno, monomeric human and huFc fused dimeric human Tim3-ECD) concentrations (s. Table X) was injected over each sample for 240 s followed by a dissociation time of 30/1800 s (s. Table 1). Each analysis cycle (sample capture, spot 1 and 5—Tim3 ECD injection) was then regenerated with a 30 seconds long injection of Glycine-HCl pH 1.7. The flow rate was set to 30 μl/min for the whole run. Finally, the double referenced data was fitted to a 1:1 langmuir interaction model with the Biacore B4000 Evaluation Software.

Test [21] has as its target T9, human TIM-3 on cells. In words: cell-based or functional assay.
Test [22] concerns the target T11, cynomolgus TIM-3 on isolated cyno CD14+ monocytes (cynomolgus).
T11 construct: whole, on cells
In words: flow cytometry, cyno CD14+ monocytes cyno2.
Description: (§8) CD14+ Monocytes were isolated from cynomolgus monkey anticoagulated peripheral blood (Covance) by density gradient centrifugation using Ficoll-Paque (GE Healthcare) (see General Protocols in the User Manuals or visit www.miltenyibiotec.com/protocols) and subsequent positive selection via NHP CD14 MicroBeads. First the CD14+ cells are magnetically labeled with CD14 MicroBeads. Then the cell suspension is loaded onto a MACS® Column which is placed in the magnetic field of a MACS Separator. The magnetically labeled CD14+ cells are retained in the column. The unlabeled cells run through, this cell fraction is depleted of CD14+ cells. After removal of the column from the magnetic field, the magnetically retained CD14+ cells can be eluted as the positively selected cell fraction. After centrifugation at 200×g for 10 min at room temperature the monocytes were harvested and used directly in binding assay or resuspended in freezing medium (10% DMSO, 90% FCS) at 1.0E+07 cells/ml and stored in liquid nitrogen.
(§9) 1×10⁵ CD14+ isolated cyno monocytes (50 μl/well) were put into 98 well-v bottom MTP in fresh culture medium and incubated with Redimune® NF Liquid for 15 min at RT to block unspecific binding. Than 50 μl/well of Alexa488 labeled anti-TIM3 (10 μg/ml in cell culture medium) were added and incubated for 1 h at 4° C. After washing and centrifugation MFI signals of stained cells were analyzed by BD Biosciences FACSCanto flow cytometer.

Test [23] has as its target T9, human TIM-3 on cells. Description: flow cytometry, human CD14+ monocytes donor2.
Description: (§10) CD14+ Monocytes were isolated from anticoagulated peripheral blood of healthy donors by density gradient centrifugation using Ficoll-Paque (GE Healthcare) (see General Protocols in the User Manuals or visit www.miltenyibiotec.com/protocols) and subsequent positive selection via CD14 MicroBeads. First the CD14+ cells are magnetically labeled with CD14 MicroBeads. Then the cell suspension is loaded onto a MACS® Column which is placed in the magnetic field of a MACS Separator. The magnetically labeled CD14+ cells are retained in the column. The unlabeled cells run through, this cell fraction is depleted of CD14+ cells. After removal of the column from the magnetic field, the magnetically retained CD14+ cells can be eluted as the positively selected cell fraction. After centrifugation at 200×g for 10 min at room temperature the monocytes were harvested and used directly in binding assay or resuspended in freezing medium (10% DMSO, 90% FCS) at 1.0E+07 cells/ml and stored in liquid nitrogen.
(§11) 1×10⁵ CD14+ isolated human monocytes (50 μl/well) were put into 98 well-v bottom MTP in fresh culture medium and incubated with Redimune® NF Liquid for 15 min at RT to block unspecific binding. […] After washing and centrifugation MFI signals of stained cells were analyzed by BD Biosciences FACSCanto flow cytometer.
Test [24] deals with T12, monomeric human Tim3-ECD (human, UniProt Q8TDQ0 22-202).
T12 construct: also called huTim3
In words: SPR Biacore, monovalent Tim3.
Description: as §6, §7

The next test has as its target T13, Tim3-ECD-His-Biotin (human, UniProt Q8TDQ0 22-202).
T13 construct: also called human Tim3 (ELISA); Biochem Human
Description: ELISA on Tim3-ECD-His-Biotin.

Test [25] concerns the target T12, monomeric human Tim3-ECD. Description: SPR Biacore, antibody captured by anti-mouse IgG.
Description: as §6, §7
Test [26] concerns the target T10, huFc fused dimeric human Tim3-ECD. Description: SPR Biacore, antibody captured by anti-mouse IgG.
Description: as §6, §7
The target of test [27] is T9, human TIM-3 on cells. Description: cell-based or functional assay. The source holds these as a separate data set.
The target of test [28] is T9, human TIM-3 on cells. In words: cell ELISA, CHO-K1 expressing human Tim3. On the technique in general: An ELISA detects its analyte on a solid surface through an enzyme-linked reagent.
Description: Then the reaction was stopped by addition of 25 μl/well 1N HCL-solution.
In test [29] the target is T11, cynomolgus TIM-3 on isolated cyno CD14+ …. Description: flow cytometry, cyno CD14+ monocytes cyno1.
Test [30] has the same target. In words: flow cytometry, cyno CD14+ monocytes cyno3.
Description: as §8, §9
The target of test [31] is T9, human TIM-3 on cells. In words: flow cytometry, human CD14+ monocytes donor1.
Description: as §10, §11

The results in this text go back to patent publication US20210087291A1 (Hoffmann-La Roche, published 2021).

Positions count from the first letter of the chain named. Where two headings read alike, the source gives them in different places.

T2 sequence (P15328 25-234 limits assumed): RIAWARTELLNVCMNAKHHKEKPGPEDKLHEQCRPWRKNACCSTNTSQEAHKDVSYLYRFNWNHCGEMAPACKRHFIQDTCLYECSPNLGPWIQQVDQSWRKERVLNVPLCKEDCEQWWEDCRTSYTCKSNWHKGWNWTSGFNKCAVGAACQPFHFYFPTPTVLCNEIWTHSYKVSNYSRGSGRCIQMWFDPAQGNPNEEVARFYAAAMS
T1 sequence (P14207 17-230 limits assumed): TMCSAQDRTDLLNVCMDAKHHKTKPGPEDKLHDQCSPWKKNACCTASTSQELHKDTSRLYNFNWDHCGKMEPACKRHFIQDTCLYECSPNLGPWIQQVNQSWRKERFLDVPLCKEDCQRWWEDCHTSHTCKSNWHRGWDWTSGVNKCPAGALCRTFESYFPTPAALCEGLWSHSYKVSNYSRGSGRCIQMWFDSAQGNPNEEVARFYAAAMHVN
T7 sequence (P15328 other isoform, or with tags, fused parts or gaps limits assumed): as the sequence (P15328 25-234 limits assumed) above, with I2T, W4R, R37K, Q117R, A146P, H171Y counted along it
Description for Tim3-ECD-His-Biotin: After washing (3×90 μl/well with PBST-buffer) 25 μl aTim3 samples or diluted (1:2 steps) reference antibody aTim3 F38-2E2 (Biolegend) was added and incubated 1 h at RT. After washing (3×90 μl/well with PBST-buffer) 25 μl/well sheep-anti-mouse-POD (GE NA9310V) was added in 1:9000 dilution and incubated at RT for 1 h while shaking at 400 rpm rotation. After washing (4×90 μl/well with PBST-buffer) 25 μl/well TMB substrate (Calbiochem, #CL07) was added and incubated until OD 1.5-2.5. Then the reaction was stopped by addition of 25 μl/well 1N HCL-solution.

B1: 19E5 IgG (antibody, V domains shown)
VH: QVQLVQSGAEVKKPGASVKVSCKASGYTFTSYYMHWVRQAPGQGLEWMGIINPSGGSTSYAQKFQGRVTMTRDTSTSTVYMELSSLRSEDTAVYYCARGEWRRYTSFDYWGQGTLVTVSS
VL: QAVVTQEPSLTVSPGGTVTLTCGSSTGAVTTSNYANWVQEKPGQAFRGLIGGTNKRAPGTPARFSGSLLGGKAALTLSGAQPEDEAEYYCALWYSNLWVFGGGTKLTVL
notes: human IgG1
Usually EC50 (read off the curve) stands for the concentration giving half of the maximal effect. High values mean lower potency in that assay, low ones higher potency in that assay. As to B1, the binding result in test [1] was “binds”. Also, the “EC50 (read off the curve)” value with human FolR1 on cells [2] is roughly 2 µg/mL.

B2: 19A4 IgG (antibody, V domains shown)
VH: B1 VH with E100G, R102I, Y104W, T105E, S106H
VL: B1 VL
notes: human IgG1
As to B2, the binding result (in [1]; with human FolR1 on cells [3]) was “binds” in each case.

B3: 20G6 IgG (antibody, V domains shown)
VH: B1 VH with R102I, T105Y, S106H
VL: B1 VL
notes: human IgG1
Turning to B3, the binding result in test [4] is reported as “no binding (tested: 500 nM)”; in test [5] it was “no binding (tested: 500 nM)”; in test [6], “no binding (tested: 500 nM)”; in test [7], “no binding (tested: 500 nM)”; with human FolR1 on cells [8], “binds”.

B4: 9D11 IgG (antibody, V domains shown)
VH: QVQLVQSGAEVKKPGASVKVSCKASGYTFTSYYMHWVRQAPGQGLEWMGIINPSGGPTSYAQKFQGRVTMTRDTSTSTVYMELSSLRSEDTAVYYCARGDFAWLDYWGQGTLVTVSS
VL: not shown
notes: human IgG1
B4: the binding result in test [9] was “binds”; in test [5], “no binding (tested: 500 nM)”; in [6], “no binding (tested: 500 nM)”; in test [10], “no binding (tested: 500 nM)”; with human FolR1 on cells [11] it was “binds”; in test [12], “no binding”.

B5: Mov19 IgG (antibody, V domains shown)
VH: QVQLQQSGAELVKPGASVKISCKASGYSFTGYFMNWVKQSHGKSLEWIGRIHPYDGDTFYNQNFKDKATLTVDKSSNTAHMELLSLTSEDFAVYYCTRYDGSRAMDYWGQGTTVTVSS
VL: DIELTQSPASLAVSLGQRAIISCKASQSVSFAGTSLMHWYHQKPGQQPKLLIYRASNLEAGVPTRFSGSGSKTDFTLNIHPVEEEDAATYYCQQSREYPYTFGGGTKLEIK
The koff is the rate constant with which the complex falls apart. As usually defined, the kon is a measure of how fast the partners come together. Regarding B5, in the test with human FolR1 on cells [2], the “EC50 (read off the curve)” value was roughly 1 µg/mL. The Kd in test [13] turned out to be 0.108 nM; in test [14], 0.14 nM; in [15], 0.65 nM; in test [16] it was 0.55 nM. Besides, the koff in [15] amounted to 0.000193 s⁻¹; in [16], 0.000159 s⁻¹; in test [17] it was 0.000139 s⁻¹; in [18], 0.000121 s⁻¹. The kon amounted to 297000 M⁻¹ s⁻¹ in [15], 289000 M⁻¹ s⁻¹ in test [16], 1.29e+06 M⁻¹ s⁻¹ in test [17] and 861000 M⁻¹ s⁻¹ in test [18].

B6: Tim3_0026 (antibody, V domains shown)
VH: QIQLVQSGPELKKPGETVKISCKASGYTFTDYSMHWVKQAPGRGLKWMGYINTETYEPTFGADFKGRFAFSLDTSATTAYLQINSLKTEDTATFFCGGGGYPAYWGQGTVVIVSA
VL: DVLMTQTPLSLPVSLGDQASISCRSSRTILHSSGNTYLEWYLQKPGQSPKLLIYKVSNRFSGVPDRFSGSGSGTDFTLNISRVEAEDLGVYYCFQDSHVPFTFGTGTKLEIK
What is called EC50 is the concentration at which the effect is half-maximal. Read a high EC50 as lower potency in that assay. For B6, the “specific binding MFI” value worked out at 900 MFI with human TIM-3 on cells [19], 1020 MFI in the test with human TIM-3 on cells [23] and 1660 MFI with human TIM-3 on cells [31]. Further, the Kd in test [20] was determined as 1.5 nM; in the test with monomeric human Tim3-ECD [24] it was 6.2 nM; in the test with monomeric human Tim3-ECD [25] it was 6.23 nM; in [26], 1.52 nM. Besides, the “IC50 cytotoxicity (anti-mFc Fab-PE24 sandwich), RPMI-8226” value in the test with human TIM-3 on cells [21] is greater than 64 nM. In addition, the MFI in test [22] came out at 184 MFI; in test [29], 137 MFI; in [30], 197 MFI. Besides, the EC50 with Tim3-ECD-His-Biotin was 0.047 µg/mL; with human TIM-3 on cells [28], 0.069 µg/mL. Further, the “IFN-gamma release in MLR at 1 µg/ml, % of IL-2 control” value with human TIM-3 on cells [27] is 18%. Further, the “IFN-gamma release in MLR at 10 µg/ml, % of IL-2 control” value with human TIM-3 on cells [27] turned out to be 16%. Also, the “IFN-gamma release in MLR at 40 µg/ml, % of IL-2 control” value in the test with human TIM-3 on cells [27] amounted to 25%.

B7: Tim3_0030 (antibody, V domains shown)
VH: QIQLVQSGPELKKPGETVKISCKASGYPFSEYSIHWVKQAPGKGLKWMVYVNTETGQPIVGDDFRGRFVLSLETSASTAYLQINNLKNEDTATYFCGGGGYPAYWGQGTLVTVSA
VL: B6 VL with T28S, L30V
For the molecule B7, the “specific binding MFI” value in the test with human TIM-3 on cells [19] came out at 466 MFI; with human TIM-3 on cells [23], 419 MFI; with human TIM-3 on cells [31], 1410 MFI. In addition, the “IC50 cytotoxicity (anti-mFc Fab-PE24 sandwich), RPMI-8226” value in the test with human TIM-3 on cells [21] was greater than 64 nM. Further, the MFI in test [22] amounted to 163 MFI; in test [29], 119 MFI; in test [30] it was 144 MFI. Further, the Kd in the test with monomeric human Tim3-ECD [25] amounted to 3.11 nM; in test [26], 1.28 nM. Besides, the “IFN-gamma release in MLR at 1 µg/ml, % of IL-2 control” value in the test with human TIM-3 on cells [27] was found to be 3%. In addition, the “IFN-gamma release in MLR at 10 µg/ml, % of IL-2 control” value with human TIM-3 on cells [27] was found to be 4%. Also, the “IFN-gamma release in MLR at 40 µg/ml, % of IL-2 control” value with human TIM-3 on cells [27] was 14%.
